Laboratory results taken from patent US20250243282A1.

Molecular target: Recombinant human Gal3 (rhGal3) (TrueBinding, #QC200361) (human) (UniProt P17931)
Experiment: cell-based or functional assay

% inhibition of CD62L shedding: 21.1%
Substance: MOPC21-hIgG4 (S228P) isotype control (antibody)
